According to article doi:10.1101/2021.04.06.438592, “Structural basis for how sMAC is packaged for clearance” (bioRxiv, 2021):
Where “and” joins values, the source holds several entries; their conditions need not be identical. Equal values may be shown once.

B1: complement C9 (natural protein)
chain: not shown
modifications: N-linked glycan (NAG) on Asn394
notes: One to three copies stand in sMAC, in two conformations; also called C9_(1); C9_(2); source: bought: Complement Technologies (as part of purified sMAC)

Assays:
Settings in all cases: both partners purified
[1] = target: T1, complement C8 (C8α/C8β/C8γ) (human, UniProt P07357 31-584; P07358 55-591; P07360 21-202); experiment: cryo-EM structure; purified sMAC (Complement Technologies) at 0.065 mg/ml in 120 mM NaCl, 10 mM Hepes pH7.4; 3D classes with 1, 2 or 3 C9; focused refinements after density subtraction
T1 construct: complement component C8 alpha chain, human; complement component C8 beta chain, human; complement component C8 gamma chain, human; Kept as one molecule; source: bought: Complement Technologies (as part of purified sMAC); copies: 1 + 1 + 1

[2] = target: T1, complement C8 (C8α/C8β/C8γ); experiment: cross-linking; XL-MS of purified sMAC (0.5 mg/ml) with 1 mM DSS or 15 mM DMTMM, 30 min at RT, triplicates; LC-MS/MS, pLink
complement C9 = target: B1; experiment: as above
Sequence of complement C9 (P02748 22-559): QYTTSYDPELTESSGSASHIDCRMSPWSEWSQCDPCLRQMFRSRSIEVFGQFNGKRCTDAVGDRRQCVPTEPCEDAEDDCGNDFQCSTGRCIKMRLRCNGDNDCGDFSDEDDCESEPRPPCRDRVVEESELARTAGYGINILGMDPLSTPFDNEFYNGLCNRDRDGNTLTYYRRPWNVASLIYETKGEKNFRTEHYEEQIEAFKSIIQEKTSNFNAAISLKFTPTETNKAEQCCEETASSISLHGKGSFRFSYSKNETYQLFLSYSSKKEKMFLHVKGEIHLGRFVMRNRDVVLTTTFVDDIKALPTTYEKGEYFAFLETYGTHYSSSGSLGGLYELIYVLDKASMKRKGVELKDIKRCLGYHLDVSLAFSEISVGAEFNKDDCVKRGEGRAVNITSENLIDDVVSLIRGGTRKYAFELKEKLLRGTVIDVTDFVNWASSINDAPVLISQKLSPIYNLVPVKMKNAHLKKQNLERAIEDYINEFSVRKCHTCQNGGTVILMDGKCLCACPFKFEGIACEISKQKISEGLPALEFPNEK

T1 sequence (P07357 31-584, chain 1 of 3): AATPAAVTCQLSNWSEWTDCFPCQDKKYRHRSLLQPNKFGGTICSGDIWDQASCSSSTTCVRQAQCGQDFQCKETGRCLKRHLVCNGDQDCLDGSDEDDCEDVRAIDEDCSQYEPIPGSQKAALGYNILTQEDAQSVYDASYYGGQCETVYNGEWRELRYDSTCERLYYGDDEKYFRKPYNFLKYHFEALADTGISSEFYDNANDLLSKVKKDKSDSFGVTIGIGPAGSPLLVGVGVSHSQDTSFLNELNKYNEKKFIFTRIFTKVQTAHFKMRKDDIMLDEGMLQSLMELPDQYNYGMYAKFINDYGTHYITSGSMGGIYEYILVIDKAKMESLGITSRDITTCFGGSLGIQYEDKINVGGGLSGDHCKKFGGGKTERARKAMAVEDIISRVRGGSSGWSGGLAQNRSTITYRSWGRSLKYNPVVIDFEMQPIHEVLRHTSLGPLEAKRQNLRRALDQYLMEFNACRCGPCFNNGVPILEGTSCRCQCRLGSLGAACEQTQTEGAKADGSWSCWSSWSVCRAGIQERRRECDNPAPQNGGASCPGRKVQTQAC
T1 sequence (P07358 55-591, chain 2 of 3): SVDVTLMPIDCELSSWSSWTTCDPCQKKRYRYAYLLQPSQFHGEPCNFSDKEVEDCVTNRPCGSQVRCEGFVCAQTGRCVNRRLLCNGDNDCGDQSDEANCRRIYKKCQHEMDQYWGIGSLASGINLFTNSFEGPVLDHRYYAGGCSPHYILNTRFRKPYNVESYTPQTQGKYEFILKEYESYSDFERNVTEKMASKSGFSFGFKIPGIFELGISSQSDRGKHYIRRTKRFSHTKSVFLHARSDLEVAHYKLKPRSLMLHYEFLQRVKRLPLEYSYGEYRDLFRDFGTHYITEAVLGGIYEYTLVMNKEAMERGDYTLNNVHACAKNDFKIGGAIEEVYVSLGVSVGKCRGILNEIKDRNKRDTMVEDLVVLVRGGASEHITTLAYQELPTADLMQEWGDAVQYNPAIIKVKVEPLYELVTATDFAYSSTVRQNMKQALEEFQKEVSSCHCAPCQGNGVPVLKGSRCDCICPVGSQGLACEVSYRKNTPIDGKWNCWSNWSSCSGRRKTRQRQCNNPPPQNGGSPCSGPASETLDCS
T1 sequence (P07360 21-202, chain 3 of 3): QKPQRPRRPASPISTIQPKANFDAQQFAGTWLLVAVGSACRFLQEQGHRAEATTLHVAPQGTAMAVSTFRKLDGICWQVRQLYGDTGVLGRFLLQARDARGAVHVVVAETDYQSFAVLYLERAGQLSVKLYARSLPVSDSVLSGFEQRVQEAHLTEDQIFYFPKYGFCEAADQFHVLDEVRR

stoichiometry N [1]	binding result [2]	binding result (complement C9)	Binder
1 copies and 3 copies			B1
	binds	binds	clusterin (natural protein, human, highly glycosylated | highly glycosylated, Secreted clusterin, about 80 kDa; multiple copies in sMAC; Not modelled in the deposited structures; the clusterin core model (residues 40-124 and 256-427) is a prediction; also called apolipoprotein J; source: bought: Complement Technologies (as part of purified sMAC)) chain 1: DQTVSDNELQEMSNQGSKYVNKEIQNAVNGVKQIKTLIEKTNEERKTLLSNLEEAKKKKEDALNETRESETKLKELPGVCNETMMALWEECKPCLKQTCMKFYARVCRSGSGLVGRQLEEFLNQSSPFYFWMNGDRIDSLLENDRQQTHMLDVMQDHFSRASSIIDELFQDRFFTREPQDTYHYLPFSLPHRRPHFFFPKSRIVR chain 2: SLMPFSPYEPLNFHAMFQPFLEMIHEAQQAMDIHFHSPAFQHPPTEFIREGDDDRTVCREIRHNSTGCLRMKDQCDKCREILSVDCSTNNPSQAKLRRELDESLQVAERLTRKYNELLKSYQWKMLNTSSLLEQLNEQFNWVSRLANLTQGEDQYYLRVTTVASHTSDSDVPSGVTEVVVKLFDSDPITVTVPVEVSRKNPKFMETVAEKALQEYRKKHREE
